# Assay results: patent US11466066B2, “Variants of human BMP7 protein” (ELI LILLY AND COMPANY, priority 2017, dated 2022)
# T1: Chordin-like 2 (Homo sapiens, UniProt Q6WN34)
# T1 construct: purchased R&D Systems
# T1 sequence (Q6WN34 26-429): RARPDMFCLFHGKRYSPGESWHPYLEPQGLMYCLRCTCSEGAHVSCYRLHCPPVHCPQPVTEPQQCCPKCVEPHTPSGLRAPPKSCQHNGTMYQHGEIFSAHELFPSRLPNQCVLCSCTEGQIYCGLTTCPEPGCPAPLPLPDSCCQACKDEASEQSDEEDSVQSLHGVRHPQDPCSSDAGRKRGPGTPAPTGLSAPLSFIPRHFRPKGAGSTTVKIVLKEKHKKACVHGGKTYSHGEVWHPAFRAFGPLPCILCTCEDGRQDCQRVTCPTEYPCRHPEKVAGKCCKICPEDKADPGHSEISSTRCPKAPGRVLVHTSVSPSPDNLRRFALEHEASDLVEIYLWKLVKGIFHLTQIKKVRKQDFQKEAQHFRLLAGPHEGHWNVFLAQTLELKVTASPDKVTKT
# T2: Noggin (Homo sapiens, UniProt Q13253)
# T2 construct: purchased R&D Systems
# T2 sequence (Q13253 28-232): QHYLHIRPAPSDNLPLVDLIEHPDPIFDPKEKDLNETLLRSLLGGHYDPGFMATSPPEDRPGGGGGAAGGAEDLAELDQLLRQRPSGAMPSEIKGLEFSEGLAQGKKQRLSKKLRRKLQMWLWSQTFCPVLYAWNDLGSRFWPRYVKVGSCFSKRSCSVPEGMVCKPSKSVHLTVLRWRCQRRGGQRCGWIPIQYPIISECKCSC
# T3: Coco (Homo sapiens, UniProt Q8N907)
# T3 construct: purchased R&D Systems
# T3 sequence (Q8N907 23-189): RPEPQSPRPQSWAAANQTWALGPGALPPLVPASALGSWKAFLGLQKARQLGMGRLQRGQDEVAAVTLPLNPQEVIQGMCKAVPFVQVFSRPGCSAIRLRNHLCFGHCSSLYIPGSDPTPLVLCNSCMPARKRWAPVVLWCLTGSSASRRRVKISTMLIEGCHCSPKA
# Assays:
# [1] = Stir-induced aggregation (solubility) assay; type: physicochemical; details: 40 μg/mL, pH 7.4, stirred 400 rpm
# Method: Solubility/physical stability of human BMP7 protein and human BMP7 protein variants may be measured in a stir-induced aggregation assay. Proteins are diluted to 40 μg/mL with assay buffer (50 mM sodium phosphate, 150 mM NaCl, pH 7.4) to a total volume of 2 mL. This solution may be put in a 7 mL glass vial containing one ‘flea’ stir bar and stirred at 400-rpm at room temperature. At periodic intervals (typically 0, 30, 60, 90, 120, and 150 minutes) a 150 μL aliquot may be withdrawn and centrifuged for 2 minutes at 16,000×g in a 1.5 mL tube. The supernatant (120 μL) may be transferred to an HPLC vial and the amount of remaining protein may be determined by reversed-phase HPLC under the following conditions: Zorbax C8 SB-300® column (3.5 micron, 4.6×50 mm), mobile phase: A buffer=0.1% TFA (v/v) in water, B buffer=0.085% TFA (v/v) in acetonitrile; flow rate at 1 mL/minute; column heated to 60° C.; autosampler cooled to 10° C., 214 nm UV detection, 80 μL injection, and 20 minute run time using the linear gradient indicated below. From the HPLC chromatograms (not shown) the protein peak or peaks (e.g., mature and pro domains) are integrated and percent change from initial peak area may be calculated.
# [2] = biological target: T4, Follistatin (Homo sapiens, UniProt P19883); assay: BMP inhibitor activity, hepcidin promoter luciferase: Follistatin; type: cell-based
# T4 construct: made in house
# T4 sequence (P19883 30-344, species assumed): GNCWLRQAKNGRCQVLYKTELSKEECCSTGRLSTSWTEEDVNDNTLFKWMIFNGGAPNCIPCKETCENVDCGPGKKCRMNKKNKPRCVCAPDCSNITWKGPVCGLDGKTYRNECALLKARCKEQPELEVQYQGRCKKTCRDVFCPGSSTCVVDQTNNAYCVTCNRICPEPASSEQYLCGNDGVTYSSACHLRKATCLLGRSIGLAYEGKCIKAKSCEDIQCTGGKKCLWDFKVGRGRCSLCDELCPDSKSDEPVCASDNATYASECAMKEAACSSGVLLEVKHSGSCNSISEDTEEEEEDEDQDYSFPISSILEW
# Method: (§1) Briefly described, Hep3B2 cells stably transfected with a hepcidin promoter luciferase construct (hereinafter, referred to as Hep3B2_HepPro_luc cells) were used for BMP inhibitor experiments. Hep3B2_HepPro_luc cells may be plated at 30,000 cells per well in a tissue culture treated 96 well plate in DMEM (Hyclone) 5% FBS (Gibco) supplemented with non-essential amino acids (Hyclone) and 200 μg/ml gentecin (Hyclone) for 24 hours. Cells were then starved in OMEM+0.2% BSA for 5 hours. Cells were treated with a mixture of human BMP7 proteins and variants thereof in OMEM (Gibco)+0.2% BSA (Gibco) for 18 hours then developed for luciferase activity utilizing Luciferase reporter Gene Assay Kit (Roche). BMP7 proteins were added at concentrations in the linear range of the assay, at 1 nM and 100 pM. Inhibitors were added at various concentrations in molar excess of the particular BMP7 protein being tested. All BMP inhibitors except Follistatin were purchased from R&D Systems. Follistatin and BMP7 proteins and variants thereof were generated at Eli Lilly and Company.
# [3] = biological target: T1, Chordin-like 2; assay: BMP inhibitor activity, hepcidin promoter luciferase: Chordin-like 2; type: cell-based
# Method: as §1
# [4] = biological target: T2, Noggin; assay: BMP inhibitor activity, hepcidin promoter luciferase: Noggin; type: cell-based
# Method: as §1
# [5] = tested on: Chordin; assay: BMP inhibitor activity, hepcidin promoter luciferase: Chordin; type: cell-based
# Method: as §1
# [6] = biological target: T3, Coco; assay: BMP inhibitor activity, hepcidin promoter luciferase: Coco; type: cell-based
# Method: as §1
# [7] = molar excess 100X, Hep3B2_HepPro_luc cells, 18 hours
# [8] = Chordin-like 2, molar excess 0.1X
# [9] = Chordin-like 2, molar excess 1X
# [10] = Chordin-like 2, molar excess 10X
# [11] = Chordin-like 2, molar excess 100X, Hep3B2_HepPro_luc cells, 18 hours
Molecule,Percent of Material Precipitated ([1]; 0 minutes),Percent of Material Precipitated ([1]; 30 minutes),Percent of Material Precipitated ([1]; 60 minutes),Percent of Material Precipitated ([1]; 90 minutes),Percent of Material Precipitated ([1]; 120 minutes),Percent of Material Precipitated ([1]; 150 minutes),% inhibition ([2]; molar excess 0.1X),% inhibition ([2]; molar excess 1X),% inhibition ([2]; molar excess 10X),"% inhibition [3, 8]","% inhibition [3, 9]","% inhibition [3, 10]",% inhibition ([4]; molar excess 0.1X),% inhibition ([4]; molar excess 1X),% inhibition ([4]; molar excess 10X),% inhibition ([5]; molar excess 0.1X),% inhibition ([5]; molar excess 1X),% inhibition ([5]; molar excess 10X),% inhibition ([6]; molar excess 0.1X),% inhibition ([6]; molar excess 1X),further results
Wild type human pro-BMP7: homodimers of wild type human mature BMP7 in a non-covalent complex with wild type human pro-domain [reference compound],0%,8%,42%,51%,65%,72%,−10.4%,5.9%,29.5%,8.9%,55.9%,87.5%,−5.3%,24.8%,84.8%,−15.1%,−2.2%,18.9%,−10.2%,4.0%,"% inhibition [2, 7]: 79.8%; % inhibition [3, 11]: 88.2%; % inhibition [4, 7]: 87.3%; % inhibition [5, 7]: 76.5%; % inhibition ([6]; molar excess 10X): 17.4%; % inhibition [6, 7]: 81.6%"
"Human mature BMP7 protein variant F9 (SEQ ID NO: 8): homodimer wherein each monomeric subunit has SEQ ID NO: 8 (Y65G/I86L/F93V/N110G/Y128W), disulfide linked (protein, homodimer, disulfide linked) STGSKQRSQNRSKTPKNQEALRMANVAENSSSDQRQACKKHELYVSFRDLGWQDWIIAPEGYAAGYCEGECAFPLNSYMNATNHALVQTLVHVINPETVPKPCCAPTQLGAISVLYFDDSSNVILKKWRNMVVRACGCH",0%,7%,23%,24%,37%,39%,10.6%,10.0%,23.8%,−3.2%,−1.0%,9.0%,−7.2%,−6.9%,−1.2%,6.8%,5.2%,5.6%,7.0%,7.3%,"% inhibition ([2]; molar excess 0.01X): 3.9%; % inhibition ([3]; Chordin-like 2, molar excess 0.01X): −1.5%; % inhibition ([4]; molar excess 0.01X): −2.6%; % inhibition ([5]; molar excess 0.01X): 3.7%; % inhibition ([6]; molar excess 0.01X): 2.3%; % inhibition ([6]; molar excess 10X): 28.5%"
"Wild type human mature BMP7 (SEQ ID NO: 2): dimer of two glycosylated, 139 amino acid disulfide-linked proteins of about 35 kDa, SEQ ID NO: 2 (protein, listed as Homo sapiens, disulfide-linked glycosylated homodimer) STGSKQRSQNRSKTPKNQEALRMANVAENSSSDQRQACKKHELYVSFRDLGWQDWIIAPEGYAAYYCEGECAFPLNSYMNATNHAIVQTLVHFINPETVPKPCCAPTQLNAISVLYFDDSSNVILKKYRNMVVRACGCH",100%,100%,100%,100%,100%,100%,−16.6%,−11.9%,21.1%,−13.7%,49.0%,69.5%,−12.2%,36.7%,72.8%,−13.1%,−9.2%,21.3%,−23.6%,−25.9%,"% inhibition [2, 7]: 54.7%; % inhibition [3, 11]: 71.9%; % inhibition [4, 7]: 73.7%; % inhibition [5, 7]: 70.9%; % inhibition ([6]; molar excess 10X): 37.6%; % inhibition [6, 7]: 77.4%"
